{"source": "paper PMC5939101", "about": "(Proceedings of the National Academy of Sciences of the …, 2018)", "binders": {"B1": {"name": "GST-Ypt7 (natural protein)", "chain": "MSSRKKNILKVIILGDSGVGKTSLMHRYVNDKYSQQYKATIGADFLTKEVTVDGDKVATMQVWDTAGQERFQSLGVAFYRGADCCVLVYDVTNASSFENIKSWRDEFLVHANVNSPETFPFVILGNKIDAEESKKIVSEKSAQELAKSLGDIPLFLTSAKNAINVDTAFEEIARSALQQNQADTEAFEDDYNDAINIRLDGENNSCSC"}}, "target": "T1, His-Ivy1 (recombinant wild-type Ivy1) (S. cerevisiae, UniProt Q04934 1-453)", "T1 sequence": "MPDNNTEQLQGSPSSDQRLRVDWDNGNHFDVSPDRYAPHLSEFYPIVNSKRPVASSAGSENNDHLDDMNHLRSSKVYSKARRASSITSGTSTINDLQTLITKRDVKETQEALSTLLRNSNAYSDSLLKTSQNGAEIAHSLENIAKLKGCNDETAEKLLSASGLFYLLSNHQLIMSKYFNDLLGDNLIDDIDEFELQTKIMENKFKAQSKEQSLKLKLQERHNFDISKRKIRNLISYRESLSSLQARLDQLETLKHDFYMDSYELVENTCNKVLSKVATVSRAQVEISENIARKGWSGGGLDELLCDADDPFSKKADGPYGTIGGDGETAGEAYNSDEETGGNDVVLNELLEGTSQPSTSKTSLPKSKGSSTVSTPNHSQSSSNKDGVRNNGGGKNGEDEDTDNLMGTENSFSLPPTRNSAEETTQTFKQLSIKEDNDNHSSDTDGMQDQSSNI", "test": "pull-down"}
{"binder": "B1", "values": [{"measurement": "binding result", "value": "binds"}]}
